Measured values published in a protein production outcome set (Wang et al. 2014).

Assay: label from the status in PepcDB records

Row | Sequence | protein production
1 | MHVSSGRWVYGLFLALLTALLWGILPIKLKQVLQVMDPVTVTWFRLTVSGGCLLAYLAAVGRLPRWRVLGPKGIWLVPISVCGLVGNYVLYLMGLNLLSPGTAQLVVQMGPILLLIASLFVFKERFSLGQGLGLLVLLIGFGLFFNQRLSELLTSLSDYTAGVLTILAASAVWTFYALGQKQLLSVWNSLQVMMVIYLFCALLLTPWAHPLEALEVNPLQGWLLLGCCLNTLIAYGAFAEALAHWEASRVSATLAITPLVTFVAVAWAAWLWPEYVQAEQINGLGYGGALLVVLGSALTALGPSLMAGLRARRQRIAAG | failed
2 | METSKKLVIVAVLSITLILTYAYLISIIEGVDYFTALYFSVITITTTGYGDFTPKTFLGRTLTVVYLCVGVGIVMYLFSLIAEFIVEGKFEEFVRLKKMKNKIKTLKDHYIICGYGRLGKVVGEKFIEENIPFIAIDINEDVLKEEYEKYPDKFLYIVGDAKKEEVLKKAKIDKAKGLIATLPSDADNVFLTLTARELNPNILITAKADEKEAIRKLKIAGANRVVSPYLIGGLRMAEVSVRPGILDFLSTFIKIAKDEYEEDIELRKFVIEKDSELAYKSLKDANIRGKTGATILGIRREKEFCINPYPEFILKPGDVIYAFGTEENLKYLENLVKKKKKKL | failed
3 | MLITVYCVRRDLTEVTFSLQVNPDFELSNFRVLCELESGVPAEEAQIVYMEQLLTDDHCSLGSYGLKDGDMVVLLQKDNVGLRTPGRTP | not failed
4 | NANLDPKTRVLEHRLLAASSAIAEKLGVSAGDEVLLIRRLRSTGDIPVAILENYLPPAFNDVSLDELEKGGLYDALRSRGVVLKIANQKIGARRAVGEESTLLDIEDGGPLLTVERVALDNSGQVIELGSHCYRPDMYNFETTLVAR | not failed
5 | ARTYRGVELIPVENIYYFLADQKYVTVRHKNGSVLIDETLKELELEFQNRFIRIHRNALVSVDYLDGLEVISSGQYQVRCREVNERLAVSRRHLPYLRDRMQKM | failed
6 | MIGHRISRLGSTIVKQLAREGYLATYGTKNLHRSYGHYLQSLPVVPRQARTSQEAWFLKSHKFCTSSTTSSENGDEETEKITIIFVDKDGEEIPVKVPIGMSVLEAAHENDIDLEGACEASLACSTCHVIVMDTEYYNKLEEPTDEENDMLDLAFGLTETSRLGCQVIARPELDGVRLAIPSATRNFAVDGFVPKPH | failed
7 | MEKYFGNAYRGDPGVPHADADRFVNIWIGSAAFSVLTWVNPYMWQLSNQFKYFSLSLSLELSNSNLGTFGFSCLISELGFLFMCFCSSLNCSGENYVLILLV | failed
8 | MTGDYALCGWRVRIDRPSTFAPPWIGEDRPVDITIRHAAFSPPSPPLLFESPLVGVFAEGAIVLRINPGLGFLIEGGARITVDATAQTGEAEIATFLFGQCLGFLALQRRQPALRAASVVRDGRAVVLAGAAGVGKSTLAAALMAKGWGLLADEVTLIDPRTLLIPPAFGRIKLWKDSATHLGLEAAALPAVRPGWNKGHAPYGGHLAPAPVPLAAIILIEQAYTAKTAGIDKIAPREALAALNDQLHGGTFAGALAARPACFDLLTTLVGGVPVFQLSRPWHGMTLAPLVELLTAEMARLEHHHHHH | failed
9 | MTEHCGAIKYFKSNFRRKRCLDFVCLTNLMFGLGSTPHGQVERADENNTLDLNNLPDDPSRDIFPFFEEGGFREKQTKDGKEYECRFCSLKFFKSQALGGHMNRHRQERETESLNKARELVLRNDSFPPHQGPPSFSYHQGDVHIGDLTQFKPMMYPPRHFSLPGSSSILQLQPPYLYPPLSSPFPQHNTNIGNNGTRHQTLTNSVCGGRALPDSSYTFIGAPVANGSRVAPHLPPHHGL | failed
10 | MSNNMQTVRESYEAFHRRDLPGVLAALAPDVRWTHPDGMSPYGLGGTKHGHDEVIAFIRHVPTHIAEMRLAPDEFIESGERIVVLGTRRVTAVNGRSATLKFVHVWRFENGRAVTFEDHFDTAEMIRLITA | not failed
11 | MLDLVNQLELDSQMKQFKLVSQMTRQDVIILDEPGYLPFSQKRGALLFHLMSQLHENTSVIITTNLEFSEWGTLFTEAKMTNALLDRLIHHCHMLETGNESYRFKHRNLEHHHHHH | failed
12 | MLTHHKNKLKTIEWTSYVWLAYLPYTIAAYIPVKSWHDWLWLLLVGGFLVLYILVVEKPHWRAVTMPAELVVTGLFAVFAANNFMIIFPGWQVSFLLGRRPKREFYGFALGYYAFLIGGCIRDYLQYPGVFGWHNGDVMGLVFPLLSPILAYTFSWSVERQRQLNQTNRRLKTIVERNERERIARDLHDTLGQSFSMITLKTELAKKLLVKAPEKVAPELDEIEQTSRQNLQLVREIVNNLHEQSLTEVLLAQTRNLAAVGVWTTTTGETQATKWPTTVQSCFAAVLVEAMTNVMRHAHAHEVRIDFVETAKIYQIKLKDDGKGGTLIRQGANGIAGMRTRLQAKQGTFAITSSRRGTQLILTLPKE | failed
13 | MLSLLISVKKLFSSFLGILKKEDTRALFFLLATTLLSGTIFYSTVEKLSPLDSLYLSFMTLTTIGYGDVHPVTDLGKIFTMIYATVGLGIMAMFISVVAKSYLYSKQSHHHHHHKNKEHSAEKSSEK | failed
14 | STNLQEKGLVVSIVDTLMFDTGRAEVKPDFQKKLVEIGEILKTIDNYIRIEGHTDNTPISNSQYASNIELGSARSNNVEHLFIDVSKIPVTQMYTVSYADTRPVADNNSEAGKARNRRVDIVILNSKFNAVEQESSGK | failed
15 | MPRFRSVFLALLVVPLVDAVFLVFVAGELGWQLTVALVVLTALLGTLFVRAEGRATLSRLQASVARGDPPTNELVDGGLLIAAGAFLLTPGLVTDALGFLIVIPVTRVAFRWGVKRYVTPKLDAKTGGFVSGNVYTFGFPGGDGGAGGDPRSGFGGGAGDGDDDTINLGDDAYDVSFEDDADGDQ | failed
16 | MSLKQKILIVEDSMTIRRMLIQAIAQQTGLEIDAFDTLEGARHCQGDEYVVALVDLTLPDAPSGEAVKVLLERGLPVVILTADISEDKREAWLEAGVLDYVMKDSRHSLQYAVGLVHRLYLNQQIEVLVVDDSRTSRHRTMAQLRKQLLQVHEASHAREALATLEQHPAIRLVLVDYYMPEIDGISLVRMLRERYSKQQLAIIGISVSDKRGLSARYLKQGANDFLNQPFEPEELQCRVSHNLEALEQFNSEGHHHHHH | not failed
17 | MNLAKGLDVLKISSNVLGEDKVMYIPAIYTEDDATLIDTGLPGQGDLIIDALNKSNTSFDRLKNIIITHHDIDHIGNINYLREKSKNNIKVYAYKSEVSYITGEETPFKLYMLEQMVDKIDDKMLSMLNVMGLGFKSSYTKVDVSLDNHEKLNLGEEIEVIHTGGHTRGHICLYLKESKVLIAGDLLQVENGELKPVDVMHSNKQELKDAIKNISNYDIETIVFSHGGLYQRNIIETLKNLIIE | failed
18 | MPQDTTNPSTGTAEQRTATDTTVQLRAGWQGRFYEDFAVGDVYKHPYGRTVTETDNVWFTNLTMNANPMHFNAAYASGTEFDERLVNGLFVIALSVGMSVVDVSANATANLGYDDIQHHAPVFHGDTLFAESEVLSKRESESRPHVGMVTTELRTYTQDGELVLSLERTPMVRKRGAADPSAARPPGWPAGVGTQPDAERTVPDGESR | failed
19 | TPVRIESFDNSNIMGTSPVSAMVVFVNGKPSKKDYRKYKIKTVVGPDDYASMREVIRRRYGRVQREALTPPDLIVIDGGQGQVNIAKQVIQEELGLDIPIAGLQKNDKHQTHELLFGDPLEVVDLSRNSQEFFLLQRIQDEVHRFAITFHRQLRSKNSFSSQLDGIDG | failed
20 | MSNANPDTTAAEAHRRRTFAVIAHPDAGKSTLTEALALHAHIISEAGATHGKAGRKATVSDWMEMEKDRGISIASSALQFEYAPEGHAGEPFMINLVDTPGHADFSEDTYRVLMAVDAAVMLIDAAKGLEPQTLQLFRVCKARGLPIITVINKWDRVGRTPLELVDEIVKEIELQPTPLFWPVGEAGDFRGLARINNDGEVEEYIHFTRTAGGSTIAPEDFYTPEEAIEREGDVWENATEEAELLAADGAVHDQELFLNCTTSPLIFASAMLNFGVHQILDTLCQLAPSPAGRDADPKALEAATSAMDDHRDTTDDFSGVVFKVQAGMDKNHRDTLAFMRVVSGEFDRGMQVTHSQSGRSFSTKYALTVFGRTRSTVETAFPGDIVGLVNAGALAPGDTIFEGRKIQYPPMPKFAPEHFRILRAKSLGKYKQFRKALEQLDSEGVVQILKNDLRGDANPVMAAVGPMQFEVMQARMEVEYNVETVADPIPYSVARRTTAETAPELAKQRGVEIFTRTDGELIALFSDKWRLSFIEKEHPDFVLESLVAE | failed
